Laboratory results taken from US10421785B2, “Delta receptor agonist peptides and use thereof” (BAR-ILAN UNIVERSITY, priority 2016, dated 2019).
Entries after “also recorded” stand apart in the source; their conditions may differ. Where no end group is shown, it is not given here.

Legend:
Sprague-Dawley rats = assay: Cue-induced cocaine-seeking behavioral test after forced abstinence
C6 cells membrane (DOR) = biological target: T1, C6 cells membrane (DOR) (Rattus norvegicus, UniProt P33533); assay: Microscope validation of GNP-peptide binding to C6 cells; type: cell-based
T1 construct: delta opioid receptor expressed by the C6 cells; endogenous in cells; host or cells: C6 glioma cells
T1 sequence (P33533 whole entry): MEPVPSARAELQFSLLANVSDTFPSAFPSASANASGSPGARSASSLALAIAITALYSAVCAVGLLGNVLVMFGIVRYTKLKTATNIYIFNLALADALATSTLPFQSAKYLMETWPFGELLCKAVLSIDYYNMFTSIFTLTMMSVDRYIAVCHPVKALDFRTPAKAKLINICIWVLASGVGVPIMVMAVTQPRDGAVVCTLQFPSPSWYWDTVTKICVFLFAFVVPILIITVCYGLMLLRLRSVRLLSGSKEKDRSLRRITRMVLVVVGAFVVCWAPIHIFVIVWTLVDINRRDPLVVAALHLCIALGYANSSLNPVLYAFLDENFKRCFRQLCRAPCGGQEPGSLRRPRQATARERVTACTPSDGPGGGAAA
Protocol: (§1) C6 cells (1×10^6) were cultured in 5 ml glucose-free DMEM medium containing 5% FCS, 0.5% Penicillin and 0.5% Glutamine. Then, excess amounts of GNPs were added and incubated with cells for 30 minutes at 37° C.
Fluorescent coated (Rhodamine B, Sigma, Israel) GNP-peptidl were incubated with C6 cells for 30 min at 37° C. The cells were subsequently washed three times in PBS prior to confocal imaging using Leica TCS SP5 with Acousto-Optical Beam Splitter microscope to acquire fluorescent and bright field images.
A Nikon i50 microscope (Tokyo, Japan) equipped with a hyperspectral imaging system (CRI, USA) was used to obtain dark-field images (20× magnification) in order to assess nanoparticle uptake.

μ-opioid receptor = biological target: T2, μ-opioid receptor (Rattus norvegicus, UniProt P33535); assay: Competitive flow cytometry assay of free peptides against DAMGO-FITC on C6 cells; type: binding; conditions: 2 nM DAMGO-FITC
T2 construct: 50% expressed the μ-opioid receptor; endogenous in cells; host or cells: C6 glioma cells
T2 sequence (P33535 whole entry): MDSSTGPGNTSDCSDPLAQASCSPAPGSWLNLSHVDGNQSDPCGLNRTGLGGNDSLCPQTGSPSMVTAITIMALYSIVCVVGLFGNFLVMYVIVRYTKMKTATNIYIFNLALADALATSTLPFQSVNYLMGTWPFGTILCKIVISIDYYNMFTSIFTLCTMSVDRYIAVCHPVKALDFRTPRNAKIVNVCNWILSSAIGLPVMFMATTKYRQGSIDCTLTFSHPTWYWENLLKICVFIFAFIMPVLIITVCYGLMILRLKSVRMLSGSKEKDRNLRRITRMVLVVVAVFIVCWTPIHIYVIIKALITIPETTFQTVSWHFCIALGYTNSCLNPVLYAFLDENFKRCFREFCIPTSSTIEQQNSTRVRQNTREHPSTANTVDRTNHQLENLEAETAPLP
Protocol: (§2) The derived peptides were synthesized (Pepmic, Suzhou, China). The binding specificity of the peptides was tested in a competitive assay. C6 cells were grown to 70-80% confluence and removed from the culture, centrifuged and re-suspended to 2×10^6/ml in PBS/0.05% FBS.DSLET-FITC (3.5 nM) was mixture with 0, 3.5, 10, 50 or 100 nM of peptide. In parallel, 2 nM DAMGO-FITC was mixture with 0, 2, 10, 50 or 100 nM of peptide. These mixtures (500 μl) were added to the cells for 5 min at 37° C. Then 500 μl PBS was added and the tubes centrifuge for 5 min at 4250 rpm. The cell pellet was re-suspended in PBS and analyzed by flow cytometry.

[1] = biological target: T3, δ-opioid receptor (DOR) expressed on C6 cells (Rattus norvegicus, UniProt P33533); assay: Intracellular cyclic AMP in C6 cells (Direct cAMP kit / cAMP ELISA); type: cell-based; conditions: for reduction of cAMP levels: 100 nM, C6 cells
T3 construct: delta opioid receptor expressed by the C6 cells; endogenous in cells; host or cells: C6 glioma cells
T3 sequence (P33533 whole entry): as the sequence (P33533 whole entry) above
Protocol: To test the pharmacological function of the peptides showing positive competitive binding versus the DSLET analogue and negative competition versus the DMGO analogue were tested for agonistic activity using the Direct cAMP kit (Enzo). The analogue DSLET was used as a positive control.

δ-opioid receptor = biological target: T4, δ-opioid receptor (Rattus norvegicus, UniProt P33533); assay: Competitive flow cytometry assay of free peptides against DSLET-FITC on C6 cells; type: binding; conditions: 100 nM peptide, 3.5 nM DSLET-FITC
T4 construct: delta opioid receptor expressed by the C6 cells; endogenous in cells; host or cells: C6 glioma cells
T4 sequence (P33533 whole entry): as above
Protocol: as §2

[2] = biological target: T5, delta opioid receptor expressed by the C6 cells (Rattus norvegicus, UniProt P33533); assay: FACS analysis of GNP-peptide binding to C6 cells
T5 construct: delta opioid receptor expressed by the C6 cells; endogenous in cells; host or cells: C6 glioma cells
T5 sequence (P33533 whole entry): as above
Protocol: as §1
Cells were incubated with GNP-peptide for 15 min at 37° C. and then washed with PBS, followed by trypsin treatment. Then, cells were centrifuged twice (5 min in 1000 rpm) to wash out unbound nanoparticles. Cells were analyzed for cell-associated NPs by Flow Cytometry (FACS; Cellquest software; Becton-Dickinson & Co., Franklin Lakes, N.J.).

Molecule: Oc1ccc2c3c1O[C@H]1c4[nH]c5ccccc5c4C[C@@]4(O)[C@@H](C2)N(CC2CC2)CC[C@]314 [naltrindole, reference compound]
- cue-induced cocaine-seeking behavior (Sprague-Dawley rats; intra-NAc infusion, 1 μg, day 1 of forced abstinence): increased cue-induced cocaine-seeking behavior
- binding of GNP conjugated peptide 1 to the cells membrane after blocking the DOR (C6 cells membrane (DOR)): significant decrease in the binding; also recorded: prevented the binding of the peptide to the cells membrane

Molecule: CTAP [reference compound]
- cue-induced cocaine-seeking behavior (Sprague-Dawley rats; intra-NAc injection, 3 μg and 30 ng, 1 day or 30 days of forced abstinence): no behavioral effect

Molecule: DPDPE [reference compound]
- active lever presses (seeking behavior) vs CSF group (Sprague-Dawley rats; injected into the NAc once after 30 days of abstinence, observed at days 30 and 60): reduced seeking behavior

Molecule: IIAGEYKQMLTL [Peptide 2]
- inhibition of DAMGO-FITC binding to the μ-opioid receptor (μ-opioid receptor): neither Peptide 1 or 2 inhibited binding
- reduction of cAMP levels [1]: ~80%
- maximum inhibition of DSLET-FITC binding (δ-opioid receptor): 45%

Molecule: NGNDRTDQMPLP [Peptide 1]
- inhibition of DAMGO-FITC binding to the μ-opioid receptor (μ-opioid receptor): neither Peptide 1 or 2 inhibited binding
- active lever presses vs CSF group (Sprague-Dawley rats; injection into the NAc, two doses): decreased active lever presses
- reduction of cAMP levels [1]: ~80%
- maximum inhibition of DSLET-FITC binding (δ-opioid receptor): 48%

Molecule: peptide 1 conjugated to gold nanoparticles: 20 nm PEG-coated gold nanoparticles with the peptide covalently conjugated to the carboxylic group of SH-PEG-COOH (NGNDRTDQMPLP; also: covalently conjugated to carboxyl of SH-PEG-COOH on 20 nm PEG-coated gold nanoparticles, site not given here)
- active lever presses vs CSF group (Sprague-Dawley rats; GNP conjugate, injection into the NAc): decreased active lever presses
- active lever presses vs CSF group (Sprague-Dawley rats; GNP conjugate, intra-nasal, tested two hours later): Significantly less active lever presses
- cAMP decreased to % from the initiation state ([1]; GNP conjugated to peptide 1, C6 cells): 80.70%
- binding to the delta opioid receptor on C6 cells by FACS relative to vehicle [2]: higher affinity and exhibited better binding to the cells relative to vehicle
- binding to the C6 cells membrane (microscope) (C6 cells membrane (DOR); listed as Gold nanoparticle (GNP) conjugated peptide 1): bind mainly the C6 cells membrane
- binding to the C6 cells membrane (microscope) (C6 cells membrane (DOR); listed as Peptide 1 conjugated to GNP): increased binding to the C6 cells membrane
